# Assay results reported in patent US20150299708, “CD133 APTAMERS FOR DETECTION OF CANCER STEM CELLS” (Deakin University, published 2015).
# T1: CD133 (prominin-1) (Homo sapiens, UniProt O43490 O43490:20-865)
# T1 sequence: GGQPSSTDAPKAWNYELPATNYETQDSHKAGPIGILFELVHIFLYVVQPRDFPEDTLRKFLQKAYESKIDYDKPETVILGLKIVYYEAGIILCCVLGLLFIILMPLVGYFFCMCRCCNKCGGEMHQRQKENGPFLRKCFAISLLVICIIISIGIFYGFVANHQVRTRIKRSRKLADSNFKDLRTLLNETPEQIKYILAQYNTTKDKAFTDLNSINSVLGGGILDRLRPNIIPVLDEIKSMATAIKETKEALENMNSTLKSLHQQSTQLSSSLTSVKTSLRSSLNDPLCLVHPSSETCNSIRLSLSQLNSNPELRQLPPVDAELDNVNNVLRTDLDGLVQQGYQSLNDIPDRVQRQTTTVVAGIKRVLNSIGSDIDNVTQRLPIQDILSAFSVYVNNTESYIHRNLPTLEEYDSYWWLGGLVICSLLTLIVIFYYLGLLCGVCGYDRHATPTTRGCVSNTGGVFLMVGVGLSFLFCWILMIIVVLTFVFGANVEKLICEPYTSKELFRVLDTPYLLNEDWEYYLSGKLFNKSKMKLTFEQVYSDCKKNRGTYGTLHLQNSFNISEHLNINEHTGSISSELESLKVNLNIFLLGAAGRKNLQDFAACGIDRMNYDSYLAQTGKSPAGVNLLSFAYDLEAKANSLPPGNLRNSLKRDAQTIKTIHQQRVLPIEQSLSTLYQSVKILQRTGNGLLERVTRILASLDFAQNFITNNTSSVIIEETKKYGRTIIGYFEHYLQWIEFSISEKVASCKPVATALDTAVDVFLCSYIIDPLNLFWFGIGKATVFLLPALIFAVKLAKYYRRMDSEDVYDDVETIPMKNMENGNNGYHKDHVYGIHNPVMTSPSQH
# Columns and labels:
# [1] = system: CD133-negative cell surface (HEK293T or T98G; no CD133) (Homo sapiens); assay: flow; conditions: 2'-F pyrimidines, 3'-inverted dT, 37 C
# CD133 (prominin-1) [2] = target: T1, CD133 (prominin-1); assay: flow; HT-29 cells; 37 C 30 min, DPBS + MgCl2; conditions: tags: endogenous CD133 on CD133-positive HT-29 or Hep3B cells (ATCC); label: 5'-DY647
# Text: (§1) CCCTCCTACATAGGGAGGAACGAGTTACTATAG -3′, and antisense oligonucleotide, 5′-CTATAGTAACTCGTTCCTCCCTATGTAGGAGGGTGGGTTGAGCGTTTATTCTTGTCTC -3′; CD133-1-2 (2nd truncation) was derived from a sense oligonucleotide: 5′-TAATACGACTCACTATAGCTCAACCCACCCTCCTACATAGGGAGGAACGAGT-3′and an antisense oligonucleotide, 5′-ACTCGTTCCTCCCTATGTAGGAGGGTGGGTTGAGC -3′; CD133-1-2-1 (3rd Truncation) was derived from a sense oligonucleotide, 5′-TAATACGACTCACTATACCACCCTCCTACATAGGGTGG-3′ and an antisense oligonucleotide, 5′-CCACCCTATGTAGGAGGGTGG-3′; and CD133-1-2-2 (4th Truncation) was derived from a sense oligonucleotide, TAATACGACTCACTATACCCTCCTACATAGGG-3′ and an antisense oligonucleotide, 5′-CCC TAT GTA GGA GGG-3′. CD133-2-1 (1st Truncation) was derived from a sense oligonucleotide 5′-TAATACGACTCACTATACAGAACGTATACTATTCTG-3′ and an antisense oligonucleotide, 5′-CAG AAT AGT ATA CGT TCT G-3′ (T7 RNA promoter sequence is underlined). […] The binding affinities of these two aptamers and a negative control aptamer was determined using CD133 positive (HT-29 and Hep3B) and CD133 negative cell lines (T98G and HEK293T). […]
# CD133 (prominin-1) [3] = target: T1, CD133 (prominin-1); assay: flow; Hep3B cells; 37 C 30 min, DPBS + MgCl2; conditions: tags: endogenous CD133 on CD133-positive HT-29 or Hep3B cells (ATCC); label: 5'-DY647
# Text: as §1
# CD133 (prominin-1) [4] = target: T1, CD133 (prominin-1); assay: flow; HT-29 cells; 37 C 30 min, DPBS + MgCl2, tRNA, salmon sperm DNA; conditions: tags: endogenous CD133 on CD133-positive HT-29 or Hep3B cells (ATCC); label: 5'-DY647
# Text: as §1
Molecule,Kd ([1]; CD133-negative HEK293T cells) [µM],Kd ([1]; CD133-negative T98G cells) [µM],Kd (CD133 (prominin-1) [2]) [µM],Kd (CD133 (prominin-1) [3]) [µM],Kd (CD133 (prominin-1) [4]) [µM]
CAGAACGUAUACUAUUCUG [CD133-2-1],1740,4.76,,,
CCCUCCUACAUAGGG [CD133-1-2-2],120,275,,,
"CAGAACGUAUACUAUUCUG (ssRNA, 2'-F pyrimidines; 3'-inverted dT) [CD133-2-1]",,,0.145,0.052,
"CCCUCCUACAUAGGG (ssRNA, 2'-F pyrimidines; 3'-inverted dT) [CD133-1-2-2]",,,,0.032,0.082
